# Results taken from patent US7629135B2, “Toll-like receptor agonists and antagonists and methods of use thereof” (The Board of Trustees of the University of Illinois, priority 2006, dated 2009).
# B1: SAA: Recombinant human SAA purchased from PeproTech; major acute-phase protein of 104 amino acids (protein, UniProt P0DJI8 19-122, looked up)
# Serum amyloid A-1 protein: RSFFSFLGEAFDGARDMWRAYSDMREANYIGSDKYFHARGNYDAAKRGPGGAWAAEVITDARENIQRFFGHGAEDSLADQAANEWGRSGKDPNHFRPAGLPEKY
# How the values were obtained:
# [1] = test system: G-CSF transcript in BMDM; experiment: Cytokine transcript induction in BMDM (RT-PCR, real-time PCR); assay type: cell-based, mouse; settings: SAA 1 μM
# Method: To investigate the mechanism for SAA-induced G-CSF production, the level of G-CSF transcript in SAA-stimulated BMDM was determined. […] The induction of G-CSF transcript peaked at 4 h after SAA stimulation. Since transcription of the G-CSF gene involves NF-κB binding to the RelA/p65 consensus element in the CK-1 site of the G-CSF promoter (Dunn et al., 1994; Hareng and Hartung, 2002), the role of NF-κB in SAA-stimulated G-CSF expression was determined. […] Using oligonucleotide probe based on the sequence of the CK-1 site (−161 to −152 in the G-CSF promoter), a protein •DNA complex (FIG. 2C) was identified. […] Inclusion of a RelA/p65 antibody blocking peptide in the assay abrogated the immunoprecipitation (FIG. 2D).
# TLR2 mediates the effect of SAA in G-CSF expression and neutrophila: To further determine a role of TLR2 in SAA-stimulated G-CSF expression and neutrophilia, wild-type and tlr2^−/− BMDM were stimulated with SAA (1 μM) and the level of G-CSF transcript (FIG. 5A) was determined. SAA induced a 37-fold induction of the mouse G-CSF transcript within 2 h of stimulation. […] Under similar experimental conditions, SAA stimulated increases in the transcripts of M-CSF (encoded by csf1; 11-fold over basal) IL-12p40 (33-fold) and IL-1 receptor antagonist (2.7-fold). In tlr2^−/− BMDM, the SAA-stimulated induction of these transcripts was reduced by 84% (M-CSF), 86% (IL-12p40), and 80% (IL-1 receptor antagonist), respectively. […] The effects of TLR2 gene deletion on SAA-induced G-CSF production and neutrophilia were determined in vivo. Subcutaneous injection of SAA was carried out in wild-type and tlr2^−/− mice for up to 7 days.
# Measurement of G-CSF expression: To measure the secreted G-CSF from human monocytes and mouse macrophages in vitro, cells were placed in serum-free DMEM medium and stimulated with the indicated ligands. Cell-free supernatants were collected by centrifugation at 1,000×g for 30 sec and assayed for human or mouse G-CSF using ELISA. Human PBMC were used as 2×10^6 cells/ml/sample, and mouse BMDM were seeded at 10^6 cells/ml and used as 0.5 ml/sample. To measure mouse plasma G-CSF, blood samples were collected and centrifuged at 1,000-2,000×g for 10 min at 4° C. Plasma samples were appropriately diluted and then checked for G-CSF concentration using ELISA. To measure mouse G-CSF transcripts, mouse […] (10^6 cells/ml, 5 ml/sample) were stimulated with 1 μM SAA for different periods of time. Total RNA was isolated with an RNeasy isolation kit (Qiagen) and cDNA was prepared with Superscript reverse transcriptase (Invitrogen). PCR amplification of G-CSF transcripts was accomplished with specific primers (F346: 5′-[…]-3′ (SEQ ID NO:3) and R980: 5′-CAGGGCTCACTGATTT TTTGG-3′) (SEQ ID NO:4), generating a 634-bp fragment. M-actin gene (a 469 bp fragment) was used for verification of equal loading and of RT-PCR efficiency. Real-time quantitative PCR was performed on a ABI PRISM 7000 Sequence Detection System (Applied Biosystems) as described previously (He et al., 2006). All data were analyzed with the ABI PRISM 7000 SDS software (version 1.1). Relative level of mRNA for G-CSF was determined by normalizing with β-actin mRNA level. The sequences of the primers used are: F229 (5′-[…]-3′) (SEQ ID NO:5) and R502 (5′-[…]-3′) (SEQ ID NO:6) for G-CSF and F413 (5′-CCCTAAGGCCAACCGTGAA-3′) (SEQ ID NO:7) and R882 (5′-[…]-3′) (SEQ ID NO:8) for β-actin.
# [2] = test system: TLR2-HeLa cells; experiment: MAP kinase phosphorylation and IκBα degradation in TLR2-HeLa cells (Western blotting); assay type: cell-based, human
# Method: FIG. 8 is a series of protein gels and corresponding Western blotting graphs showing that SAA-induced TLR2-dependent signaling in transfected cells. Serum-starved TLR2-HeLa and mock-transfected HeLa cells were stimulated with SAA (1 μM) or Pam3CSK4 (1 μg/ml) for the indicated time. The phosphorylation level of ERK1/2 (A), p38 (B) and JNK (C) was detected by Western blotting using antibodies recognizing the phosphorylated forms of the MAP kinases (blots). (D) The level of cytoplasmic IκB ? was detected by Western blotting using an anti-IκB ? antibody and the β-actin levels in the corresponding samples were shown as loading controls. […] A representative set of data, from 3 repeating experiments, is presented.
molecule,measurement,setting,value
B1,reduction of G-CSF transcript induction in tlr2−/− vs wild-type BMDM,[1],94%
same,reduction of IL-1 receptor antagonist transcript induction in tlr2−/− BMDM,[1],80%
same,reduction of IL-12p40 transcript induction in tlr2−/− BMDM,[1],86%
same,reduction of M-CSF transcript induction in tlr2−/− BMDM,[1],84%
same,time of peak induction of G-CSF transcript,"[1]; BMDM, RT-PCR",4 h
same,induction of G-CSF transcript over basal level,[1]; tlr2−/− BMDM,2 fold
same,increase in IL-1 receptor antagonist transcript,[1]; wild-type BMDM,2.7 fold
same,increase in IL-12p40 transcript,[1]; wild-type BMDM,33 fold
same,increase in M-CSF transcript over basal,[1]; wild-type BMDM,11 fold
same,induction of mouse G-CSF transcript,"[1]; wild-type BMDM, within 2 h, real-time PCR",37 fold
same,IκBα degradation,"[2]; TLR2-HeLa cells, SAA 1 μM",IκBα degradation
same,"phosphorylation of MAP kinases ERK1/2, p38 and JNK","[2]; TLR2-HeLa cells, SAA 1 μM",robust phosphorylation
same,ERK1/2 phosphorylation in mock-transfected cells,"[2]; mock-transfected HeLa cells, 10 min, SAA 1 μM, Pam3CSK4 1 μg/ml",induced ERK1/2 phosphorylation
same,IκBα degradation in mock-transfected cells,"[2]; mock-transfected HeLa cells, SAA stimulation",No IκBα degradation
